In US20100129861:

Molecular target: 43S complexes containing 40S subunits and eIFs 2/3/1/1A

B1: DHX29 (purified native DHX29, DExH-box helicase) (protein)
chain: MGGKNKKHKAPAAAVVRAAVSASRAKSAEAGIAGEAQSKKPVSRPATAAAAAAGSREPRVKQGPKIYSFNSTNDSSGPANLDKSILKVVINNKLEQRIIGVINEHKKQNNDKGMISGRLTAKKLQDLYMALQAFSFKTKDIEDAMTNTLLYGGDLHSALDWLCLNLSDDALPEGFSQEFEEQQPKSRPKFQSPQIQATISPPLQPKTKTYEEDPKSKPKKEEKNMEVNMKEWILRYAEQQNEEEKNENSKSLEEEEKFDPNERYLHLAAKLLDAKEQAATFKLEKNKQGQKEAQEKIRKFQREMETLEDHPVFNPAMKISHQQNERKKPPVATEGESALNFNLFEKSAAATEEEKDKKKEPHDVRNFDYTARSWTGKSPKQFLIDWVRKNLPKSPNPSFEKVPVGRYWKCRVRVIKSEDDVLVVCPTILTEDGMQAQHLGATLALYRLVKGQSVHQLLPPTYRDVWLEWSDAEKKREELNKMETNKPRDLFIAKLLNKLKQQQQQQQQHSENKRENSEDPEESWENLVSDEDFSALSLESANVEDLEPVRNLFRKLQSTPKYQKLLKERQQLPVFKHRDSIVETLKRHRVVVVAGETGSGKSTQVPHFLLEDLLLNEWEASKCNIVCTQPRRISAVSLANRVCDELGCENGPGGRNSLCGYQIRMESRACESTRLLYCTTGVLLRKLQEDGLLSNVSHVIVDEVHERSVQSDFLLIILKEILQKRSDLHLILMSATVDSEKFSTYFTHCPILRISGRSYPVEVFHLEDIIEETGFVLEKDSEYCQKFLEEEEEVTINVTSKAGGIKKYQEYIPVQTGAHADLNPFYQKYSSRTQHAILYMNPHKINLDLILELLAYLDKSPQFRNIEGAVLIFLPGLAHIQQLYDLLSNDRRFYSERYKVIALHSILSTQDQAAAFTLPPPGVRKIVLATNIAETGITIPDVVFVIDTGRTKENKYHESSQMSSLVETFVSKASALQRQGRAGRVRDGFCFRMYTRERFEGFMDYSVPEILRVPLEELCLHIMKCNLGSPEDFLSKALDPPQLQVISNAMNLLRKIGACELNEPKLTPLGQHLAALPVNVKIGKMLIFGAIFGCLDPVATLAAVMTEKSPFTTPIGRKDEADLAKSALAMADSDHLTIYNAYLGWKKARQEGGYRSEITYCRRNFLNRTSLLTLEDVKQELIKLVKAAGFSSSTTSTSWEGNRASQTLSFQEIALLKAVLVAGLYDNVGKIIYTKSVDVTEKLACIVETAQGKAQVHPSSVNRDLQTHGWLLYQEKIRYARVYLRETTLITPFPVLLFGGDIEVQHRERLLSIDGWIYFQAPVKIAVIFKQLRVLIDSVLRKKLENPKMSLENDKILQIITELIKTENN
Which NTPase activity does the source give for B1 here?
The NTPase activity was “DHX29's NTPase activity was strongly stimulated by 43S complexes, whereas stimulation by single-stranded RNA was low”.
